The values that follow come from patent US20010029034A1.

For one data set, the target named is Trypsin (Sigma). Kind of data set: cell-based or functional assay.
Data set [1] has as its system His-tagged Cripto (a TGF-a family member).
In data set [2] the test system is T1, first Kunitz-type domain of the TFPI-3 protein (TFPI-3-1), His-tagged, expressed in E. coli.
T1 sequence: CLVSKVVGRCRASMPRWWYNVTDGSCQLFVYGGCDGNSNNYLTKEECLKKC

“first Kunitz-type domain of the TFPI-3 protein (TFPI-3-1), His-tagged, expressed in E. coli (from UniProt O43291 38-88)”: in the data set with Trypsin (Sigma), the trypsin activity inhibited, 5.00 dose of TFPI-3-1 came out at 60%; the trypsin activity left against buffer only samples, 10 of TFPI-3-1, duplicate samples was 7%; the trypsin activity left against the buffer-only control, 10.00 dose of TFPI-3-1 came to 13%.

For the substance Trypsin (Sigma), the “trypsin activity on TAME substrate, same concentrations of Cripto as control” value in data set [1] was “no trypsin inhibiting activity could be observed”. In data set [2], the “trypsin activity on TAME substrate (absorbance at 247 nm), 1.25 dose of TFPI-3-1” value is “did not appear to inhibit trypsin activity at 1.25 and 2.50 mg doses”; the “trypsin activity on TAME substrate (absorbance at 247 nm), 2.50 dose of TFPI-3-1” value was “did not appear to inhibit trypsin activity at 1.25 and 2.50 mg doses”.
